This data set in a line: collision cross section of modified peptide (TIMS, N2, iRT-aligned); higher = larger / more extended gas-phase ion. As for the experimental part: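 1/K0 was aligned run-wise to spiked iRT peptides and converted to CCS in N2 (Mason-Schamp). Values are the mean of 1-3 technical replicates for the most abundant feature at each charge state.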
[1] abbreviates: charge state: 2, modification: Dimethyl (K).
[2] abbreviates: charge state: 3, modification: Dimethyl (K).
The mark [3] stands for this setting: charge state: 2, modification: Hydroxyproline.
The mark [4] stands for this setting: charge state: 2, modification: Crotonyl.
Setting [5] is: charge state: 3, modification: Crotonyl.
Setting [6] is: charge state: 2, modification: Acetyl (K).
The mark [7] stands for this setting: charge state: 3, modification: Acetyl (K).
[8] abbreviates: charge state: 2, modification: Nitro (Y).
[9] abbreviates: charge state: 2, modification: Butyryl.
Setting [10] is: charge state: 2, modification: Succinyl.
The mark [11] stands for this setting: charge state: 3, modification: Succinyl.
The mark [12] stands for this setting: charge state: 2, modification: Biotin.
Where [13] appears, read: charge state: 3, modification: Biotin.
The mark [14] stands for this setting: charge state: 3, modification: Nitro (Y).
Where [15] appears, read: charge state: 2, modification: Trimethyl (K).
Setting [16] is: charge state: 2, modification: Glutarylation.
Where [17] appears, read: charge state: 3, modification: Glutarylation.
Setting [18] is: charge state: 2, modification: Citrullination (R).
The mark [19] stands for this setting: charge state: 3, modification: Citrullination (R).
The mark [20] stands for this setting: charge state: 2, modification: Phospho (Y).
Setting [21] is: charge state: 3, modification: Trimethyl (K).
[22] abbreviates: charge state: 2, modification: Malonyl.
Setting [23] is: charge state: 2, modification: Methyl (K).
Setting [24] is: charge state: 3, modification: Methyl (K).
[25] abbreviates: charge state: 2, modification: Formyl.
The mark [26] stands for this setting: charge state: 2, modification: GlyGly (K).
[27] abbreviates: charge state: 3, modification: GlyGly (K).
Setting [28] is: charge state: 2, modification: Propionyl.

This note sets out measurements from the supplement of paper PMC10598134.

± gives the standard deviation.

For the substance “SSGPGGQNVNKVNSK [_SSGPGGQNVNK(Dimethyl (K))VNSK_]”, the collision cross section runs as follows: under setting [1], 397.16 ± 1.7 Å²; under setting [2], 437.57 ± 2.1 Å².
“GGPGAPGAPGPKGESGDYK [_GGP(Hydroxyproline)GAPGAPGPKGESGDYK_]”: the collision cross section reads like this: under setting [3], 431.65 ± 0.34 Å²; (charge state: 3, modification: Hydroxyproline) 482.83 ± 2.3 Å².
Substance “LLIVSTTPYSEKDTK [_LLIVSTTPYSEK(Crotonyl)DTK_]” had a collision cross section under setting [4] of 458.47 ± 1.4 Å² and a collision cross section under setting [5] of 486.79 ± 2.7 Å².
On to “SGNLTEDDKHNNAK [_SGNLTEDDK(Acetyl (K))HNNAK_]”, for which the collision cross section reads like this: under setting [6], 418.78 ± 2.4 Å²; under setting [7], 469.35 ± 2.1 Å².
In the case of GYGVIFANGNR [_GY(Nitro (Y))GVIFANGNR_], the collision cross section under setting [8] stood at 360.58 ± 1.2 Å².
In the case of SLKLNTAEDAK [_SLK(Butyryl)LNTAEDAK_], under setting [9], the collision cross section is given as 378.05 ± 1.5 Å².
As to IQQELQTAKK [_IQQELQTAK(Succinyl)K_], the collision cross section by setting is: under setting [10], 376.48 ± 0.24 Å²; under setting [11], 438.22 Å².
Regarding KYEEIDNAPEER [_K(Biotin)YEEIDNAPEER_], the collision cross section runs as follows: under setting [12], 430.04 ± 3.1 Å²; under setting [13], 521.46 ± 0.34 Å².
DYGNSPLHR [_DY(Nitro (Y))GNSPLHR_] gave a collision cross section under setting [8] of 341.59 ± 0.55 Å² and a collision cross section under setting [14] of 437.8 ± 1.2 Å².
Take “FVDSKVGEFSGANK [_FVDSK(Trimethyl (K))VGEFSGANK_]”: under setting [15], the collision cross section was 432.92 Å².
Substance GLPGEPGPR [_GLPGEP(Hydroxyproline)GPR_] displayed a collision cross section under setting [3] of 312.79 ± 1.3 Å².
As for ISALQGKLSK [_ISALQGK(Butyryl)LSK_], the collision cross section under setting [9] came out at 358.56 ± 1.2 Å².
Turning to “LQAAYAGDKADDIQK [_LQAAYAGDK(Succinyl)ADDIQK_]”, the collision cross section is reported as 436.68 ± 1.4 Å² under setting [10] and 489.74 ± 2.1 Å² under setting [11].
On to “DYSSGFGGKYGVQADR [_DYSSGFGGK(Gluratylation)YGVQADR_]”, for which the collision cross section under setting [16] is 441.26 ± 0.95 Å².
In the case of “SPPLPEHQKIPCNSAEPK [_SPPLPEHQK(Gluratylation)IPCNSAEPK_]”, the collision cross section under setting [17] is 541.53 Å².
For the substance “GGGFGAHGRGR [_GGGFGAHGR(Citrullination (R))GR_]”, the collision cross section runs as follows: under setting [18], 343.86 ± 0.28 Å²; under setting [19], 412.59 ± 0.45 Å².
With “YADLTEDQLPSCESLK [_Y(Phospho (Y))ADLTEDQLPSCESLK_]”, the collision cross section under setting [20] came out at 458.87 Å².
Consider “FSAYIKNSNPALNDNLEK [_FSAYIK(Biotin)NSNPALNDNLEK_]”, for which the collision cross section reads like this: under setting [12], 499.7 ± 0.61 Å²; under setting [13], 526.24 Å².
As to “PRTPTAPAVNLAGAR [_PR(Citrullination (R))TPTAPAVNLAGAR_]”, the collision cross section is, setting by setting: under setting [18], 411.43 ± 0.98 Å²; under setting [19], 471.47 ± 0.76 Å².
Regarding “VDIDAPDVSIEGPDAKLK [_VDIDAPDVSIEGPDAK(Trimethyl (K))LK_]”, the collision cross section reads like this: under setting [15], 465.65 ± 1.2 Å²; under setting [21], 534.07 ± 1.8 Å².
Substance TEVNSGFFYK [_TEVNSGFFY(Phospho (Y))K_] had a collision cross section under setting [20] of 373.38 ± 0.68 Å².
On to “ITESVAETAQTIKK [_ITESVAETAQTIK(Acetyl (K))K_]”, for which the collision cross section is given as 418.11 ± 1.3 Å² under setting [6] and 510.01 ± 1.7 Å² under setting [7].
In the case of “ITLSKHQNVQLPR [_ITLSK(Crotonyl)HQNVQLPR_]”, the collision cross section by setting is: under setting [4], 443.04 ± 1.2 Å²; under setting [5], 519.02 ± 26 Å².
As to GHYTIGK [_GHY(Nitro (Y))TIGK_], the collision cross section under setting [8] was determined as 323.5 ± 0.72 Å².
On to “DTGEKLTVAENEAETK [_DTGEK(Malonyl)LTVAENEAETK_]”, for which the collision cross section under setting [22] is 444.04 ± 1.8 Å².
“HELQANCYEEVKDR [_HELQANCYEEVK(Methyl (K))DR_]”: the collision cross section runs as follows: under setting [23], 444.71 Å²; under setting [24], 527.11 ± 0.72 Å².
Take LLFSNTAAQKLR [_LLFSNTAAQK(Butyryl)LR_]: the collision cross section under setting [9] is 405.4 ± 0.23 Å² and the collision cross section (charge state: 3, modification: Butyryl) is listed as 483.12 ± 3.2 Å².
Substance “PASGAGAGAGAGKR [_PASGAGAGAGAGK(Acetyl (K))R_]” displayed a collision cross section under setting [6] of 357.24 ± 1 Å² and a collision cross section under setting [7] of 456.58 ± 2.9 Å².
DYNVTANSK [_DY(Phospho (Y))NVTANSK_] had a collision cross section under setting [20] of 337.74 ± 0.067 Å².
Consider “SPPLPEHQKIPCNSAEPK [_SPPLPEHQK(Succinyl)IPCNSAEPK_]”, for which, under setting [11], the collision cross section was 539.73 ± 2.2 Å².
With TEVLSPNSKVESK [_TEVLSPNSK(Formyl)VESK_], the collision cross section stood at 404.6 ± 5.2 Å² under setting [25] and 443.86 ± 4.1 Å² (charge state: 3, modification: Formyl).
With “GTVPDDAVEALADSLGKK [_GTVPDDAVEALADSLGK(hydroxyisobutyryl)K_]”, the collision cross section is, setting by setting: (charge state: 2, modification: hydroxyisobutyryl) 460.24 ± 0.81 Å²; (charge state: 3, modification: hydroxyisobutyryl) 537.74 ± 2.1 Å².
“KYEEIDNAPEER [_K(Gluratylation)YEEIDNAPEER_]”: the collision cross section by setting is: under setting [16], 417.33 ± 0.59 Å²; under setting [17], 495.54 ± 1 Å².
As to “DYSAPVNFISAGLKK [_DYSAPVNFISAGLK(GlyGly (K))K_]”, the collision cross section is, setting by setting: under setting [26], 449.5 ± 1.6 Å²; under setting [27], 532.12 ± 1.1 Å².
In turn, “TGGTQTDLFTCGKCK [_TGGTQTDLFTCGK(Butyryl)CK_]” had a collision cross section under setting [9] of 444.65 Å².
Turning to DHLSDKESK [_DHLSDK(Dimethyl (K))ESK_], the collision cross section is 344.63 ± 1.5 Å² under setting [1] and 408.73 ± 0.56 Å² under setting [2].
Turning to “DTPTSAGPNSFNKGK [_DTPTSAGPNSFNK(GlyGly (K))GK_]”, the collision cross section by setting is: under setting [26], 413.5 ± 3.1 Å²; under setting [27], 464.37 ± 0.33 Å².
VNALKNLQVK [_VNALK(Propionyl)NLQVK_] returned a collision cross section under setting [28] of 372.11 ± 0.65 Å².
Regarding “SGNLTEDDKHNNAK [_SGNLTEDDK(Methyl (K))HNNAK_]”, the collision cross section is given as 417.49 ± 1.1 Å² under setting [23] and 487.35 ± 2.7 Å² under setting [24].
SDDESSQKDIK [_SDDESSQK(Methyl (K))DIK_]: the collision cross section came out at 375.97 ± 0.26 Å² under setting [23] and 439.66 ± 3.3 Å² under setting [24].
Take YTQVGPDHNR [_Y(Nitro (Y))TQVGPDHNR_]: the collision cross section is listed as 361.98 ± 1.1 Å² under setting [8] and 411.69 ± 0.22 Å² under setting [14].
As for ASDTSSETVFGKR [_ASDTSSETVFGK(Formyl)R_], the collision cross section under setting [25] was determined as 390.61 ± 0.41 Å².
Substance ASEALLKQLK [_ASEALLK(Succinyl)QLK_] registered a collision cross section under setting [10] of 374.59 ± 0.24 Å².
Under setting [3], “GFPGAPGLPGLK [_GFPGAP(Hydroxyproline)GLPGLK_]” registered a collision cross section of 358.41 ± 0.79 Å².
In turn, LLEEEDSKLK [_LLEEEDSK(Propionyl)LK_] yielded a collision cross section under setting [28] of 383.32 ± 0.94 Å².
Under setting [22], VFSIISSEKELK [_VFSIISSEK(Malonyl)ELK_] yielded a collision cross section of 409.68 ± 0.66 Å².
Take “FVDSKVGEFSGANK [_FVDSK(Formyl)VGEFSGANK_]”: the collision cross section under setting [25] was determined as 406.35 Å².
In the case of “LGNDFHTNKR [_LGNDFHTNK(Trimethyl (K))R_]”, the collision cross section under setting [21] came to 415.91 ± 2.1 Å².
“FVDSKVGEFSGANK [_FVDSK(Gluratylation)VGEFSGANK_]” showed a collision cross section under setting [16] of 419.09 Å².
Turning to “TFGKAAGPSLSHTSGGTQSK [_TFGK(GlyGly (K))AAGPSLSHTSGGTQSK_]”, the collision cross section under setting [27] is given as 526.57 ± 0.59 Å².
For “VTLEVGKVIQQGR [_VTLEVGK(Gluratylation)VIQQGR_]”, the collision cross section is, setting by setting: under setting [16], 418.56 ± 0.59 Å²; under setting [17], 485.84 ± 1 Å².
Take “LFVGGIKEDTEEHHLR [_LFVGGIK(Gluratylation)EDTEEHHLR_]”: the collision cross section by setting is: under setting [16], 501.63 ± 1.9 Å²; under setting [17], 544.37 ± 0.97 Å².
Under setting [3], “PGPVGPPGSGGLK [_PGPVGPP(Hydroxyproline)GSGGLK_]” registered a collision cross section of 349.24 ± 3.9 Å².
Consider “TTGFYSGFSEVAEKR [_TTGFYSGFSEVAEK(Formyl)R_]”, for which, under setting [25], the collision cross section came to 430.24 ± 0.79 Å².
Consider “GATVTRGVPPPPTVR [_GATVTR(Citrullination (R))GVPPPPTVR_]”, for which the collision cross section runs as follows: under setting [18], 398.42 ± 2.1 Å²; under setting [19], 501.66 Å².
Turning to “DTGEKLTVAENEAETK [_DTGEK(Acetyl (K))LTVAENEAETK_]”, the collision cross section reads like this: under setting [6], 441.95 ± 2.1 Å²; under setting [7], 512.62 Å².
Consider “ASDTSSETVFGKR [_ASDTSSETVFGK(Trimethyl (K))R_]”, for which the collision cross section runs as follows: under setting [15], 414.52 ± 0.6 Å²; under setting [21], 471.76 ± 2.7 Å².
For “VGVEVPDVNIEGPEGKLK [_VGVEVPDVNIEGPEGK(Butyryl)LK_]”, the collision cross section under setting [9] amounted to 461.93 ± 0.5 Å².
